Substitutions are numbered along the chain they refer to. Names may count otherwise.
B1: NCgl0581^E136P: transcription factor NCgl0581 mutant, 136th glutamic acid of SEQ ID NO.1 mutated into proline (SEQ ID NO.3) (protein)
chain: VLNLNRLHILQEFHRLGTITAVAESMNYSRSAISQQMALLEKEIGVKLFEKSGRNLYFTEQGEVLASETHAIMAAVDHARAAVLDSLSEVSGTLKVTSFQSLLFTLAPKAIARLTEKYPHLQVEISQLEVTAALEPLRARRVDVALGEEYPVEVPLVEASIHREVLFEDPMLLVTPASGPYSGLTLPELRDIPIAIDPPDLPAGEWVHRLCRRAGFEPRVTFETSDPMLQAHLVRSGLAVTFSPTLLTPMLESVHIQPLPGNPTRTLYTAVREGRQGHPAIKAFRRALAHVAKESYLEARLVE
B2: wild-type NCgl0581: wild-type LysR-family transcription regulator of Corynebacterium glutamicum (SEQ ID NO.1); L-serine biosensor pDSer is based on it (protein)
chain: B1 chain with P136E

Tested on: L-serine
Test: L-serine biosensor dose response by exogenous addition of L-serine (eyfp fluorescence intensity/OD600)
Assay type: cell-based, E. coli JM109
Conditions: for detection limit of the biosensor (L-serine concentration at which the dose response curve shows an obvious upward trend): E. coli JM109, L-serine 0, 25, 50, 75 or 100 mM, 2 h at 37° C., PSerE-eyfp reporter
Protocol: Determination of fluorescence intensity and biomass of bacteria: E. coli in the medium was centrifuged at 4° C. and 4000 g for 5 min to collect the bacteria, washed with a precooled PBS buffer for 2-3 times, resuspended and diluted in a PBS buffer (OD600=0.2-0.8). 200 μL of the diluted bacterial liquid was pipetted and added into a 96-well plate, and the fluorescence intensity and bacterial concentration were determined with a multifunctional microplate reader. During the determination of the fluorescence intensity, the parameters of the microplate reader were set to a yellow fluorescent protein excitation wavelength of 488 nm and an emission wavelength of 590/9 nm; and during the determination of the bacteria concentration, the parameters of the microplate reader were set to λ=600.
One part of the biosensor was used for the expression of the transcription regulator NCgl0581, and the other part was connected with the promoter PSerE regulated by NCgl0581, and then connected with eyfp, which was used to characterize the binding of the biosensor to L-serine so as to regulate the transcription level of eyfp. The nucleotide sequence of the promoter PSerE is shown in SEQ ID NO.5, and the nucleotide sequence of the reporter gene eyfp is shown in SEQ ID No.6.
On the basis of site-directed mutation, E. coli JM109 single colonies containing wild-type NCgl0581 and mutant E136P were selected and inoculated into a 10 mL LB (100 μg/mL Kan) liquid medium, and cultured overnight at 37° C. and 220 rpm. A 950 μL of fresh LB medium was added to each well in a sterilized 24-well plate, and then L-serine with different concentrations was added, with the final concentration controlled to be 0, 25, 50, 75 or 100 mM respectively. Finally, 50 μL of the overnight culture bacteria liquid was added to each well, and the well plate was cultured in a shaker for 2 h at 37° C. and 220 rpm.
E. coli JM109 in the medium was centrifuged for 5 min to collect the bacteria, washed with a PBS buffer for 2-3 times, resuspended and diluted in a PBS buffer (OD600=0.2-0.8). 200 μL of the diluted bacterial liquid was pipetted and added into a 96-well plate, and the bacterial concentration OD600 and fluorescence intensity were determined with a multifunctional microplate reader, with the calculated fluorescence intensity/OD600 as the fluorescence intensity value per unit of bacterial cell.
With the fluorescence intensity/OD600 as the ordinate and the L-serine concentration as the abscissa, the dose response curve of the biosensor to L-serine was drawn by OriginPro 8.5. […] According to the response curve, the detection range of wild-type NCgl0581 and mutant E136P could be obtained respectively.

Row | Molecule | detection limit of the biosensor (L-serine concentration at which the dose response curve shows an obvious upward trend) [mM] | change of detection limit of the biosensor versus wild type (biosensor in E. coli, L-serine concentration gradients) | response concentration to L-serine (biosensor in E. coli, exogenous addition of L-serine) [mM]
1 | B1 | 25 | reduced by half | 25
2 | B2 | 50 |  | 

Source: patent publication US12448422B2, “Transcription factor NCgl0581 mutant and use thereof in L-serine detection” (JITRI FUTURE FOOD TECHNOLOGY INSTITUTE CO., LTD., priority 2023, dated 2025)
